Reference: US20230190951A1, “CONJUGATES OF ANTIBODIES AN IMMUNE CELL ENGAGERS” (SYNAFFIX B.V., priority 2020, published 2023)

Legend:
FcRn receptor = assay: SPR (Biacore T200), FcRn on CM5 chip, steady state analysis, pH 6.0; pH 6.0
[1] = biological target: CD3 on the cell surface of Jurkat E6.1 cells (UniProt P07766); assay: flow cytometry on Jurkat E6.1 cells, 1 nM antibody, anti-IgG1-PE; negative control
[2] = biological target: CD3 on the cell surface of Jurkat E6.1 cells (UniProt P07766); assay: flow cytometry on Jurkat E6.1 cells, 10 nM antibody, anti-IgG1-PE; negative control
[3] = biological target: CD3 on the cell surface of Jurkat E6.1 cells (UniProt P07766); assay: flow cytometry on Jurkat E6.1 cells, 100 nM antibody, anti-IgG1-PE; negative control
[4] = biological target: CD3 on the cell surface of Jurkat E6.1 cells (UniProt P07766); assay: flow cytometry on Jurkat E6.1 cells, 316 nM antibody, anti-IgG1-PE; negative control
[5] = biological target: CD3 on the cell surface of Jurkat E6.1 cells (UniProt P07766); assay: flow cytometry on Jurkat E6.1 cells, 0.32 nM antibody, anti-IgG1-PE; negative control
[6] = biological target: CD3 on the cell surface of Jurkat E6.1 cells (UniProt P07766); assay: flow cytometry on Jurkat E6.1 cells, 1000 nM antibody, anti-IgG1-PE; negative control
[7] = biological target: CD3 on the cell surface of Jurkat E6.1 cells (UniProt P07766); assay: flow cytometry on Jurkat E6.1 cells, 3.16 nM antibody, anti-IgG1-PE; negative control
[8] = biological target: CD3 on the cell surface of Jurkat E6.1 cells (UniProt P07766); assay: flow cytometry on Jurkat E6.1 cells, 31.6 nM antibody, anti-IgG1-PE; negative control

Chain of CD3 on the cell surface of Jurkat E6.1 cells (P07766 23-207): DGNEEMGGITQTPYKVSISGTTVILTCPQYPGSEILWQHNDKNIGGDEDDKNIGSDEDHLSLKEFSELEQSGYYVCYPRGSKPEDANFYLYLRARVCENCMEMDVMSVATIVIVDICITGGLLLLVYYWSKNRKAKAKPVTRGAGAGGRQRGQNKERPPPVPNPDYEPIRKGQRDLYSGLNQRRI

Row | Kd (FcRn receptor) | median fluorescence intensity [1] | median fluorescence intensity [2] | median fluorescence intensity [3] | median fluorescence intensity [4] | median fluorescence intensity [5] | median fluorescence intensity [6] | median fluorescence intensity [7] | median fluorescence intensity [8] | Substance
1 | 1740 nM | – | – | – | – | – | – | – | – | Irrelevant IgG1 WT (antibody)
2 | – | 56.5 | 60.8 | 55.5 | 55 | 58.3 | 66.4 | 55.4 | 58.7 | Rituximab (antibody)
